Residue numbers refer to the chain shown, from its start. Read-outs that look alike come from different tables or passages of the source.
T1: human VEGF (human, UniProt P15692 207-395, biotinylated (site not stated))
T1 construct: Biotinylated human VEGF generated internally; also called hVEGF; hVEGF-biotin
T1 sequence: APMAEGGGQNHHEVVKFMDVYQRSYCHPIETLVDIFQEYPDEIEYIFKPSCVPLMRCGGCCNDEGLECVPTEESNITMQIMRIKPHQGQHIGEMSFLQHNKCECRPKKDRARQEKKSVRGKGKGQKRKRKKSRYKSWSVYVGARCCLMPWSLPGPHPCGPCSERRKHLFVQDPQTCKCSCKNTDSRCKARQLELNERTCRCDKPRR

B1: NVS101 (Fab)
heavy: EVQLVESGGGLVQPGGSLRLSCTASGFSLTDYYYMTWVRQAPGKGLEWVGFIDPDDDPYYATWAKGRFTISRDNSKNTLYLQMNSLRAEDTAVYYCAGGDHNSGWGLDIWGQGTLVTVSSASTKGPSVFPLAPSSKSTSGGTAALGCLVKDYFPEPVTVSWNSGALTSGVHTFPAVLQSSGLYSLSSVVTVPSSSLGTQTYICNVNHKPSNTKVDKRVEPKSC
light: ACGVYHREAQSGKYYLTYAEAKAVCEFEGGHLATYKQLLCAQKIGFHVCAAGWMAKGRVGYPIVKPGPNCGFGKTGIIDYGIRLNRSERWDAYCYNPHAGGGSDIVMTQSPSTLSASVGDRVIITCQASEIIHSWLAWYQQKPGKAPKLLIYLASTLASGVPSRFSGSGSGAEFTLTISSLQPDDFATYYCQNVYLASTNGANFGQGTKLTVLKRTVAAPSVFIFPPSDEQLKSGTASVVCLLNNFYPREAKVQWKVDNALQSGNSQESVTEQDSKDSTYSLSSTLTLSKADYEKHKVYACEVTHQGLSSPVTKSFNRGEC
B2: NVS103 (Fab)
heavy: B1 heavy
light: DIVMTQSPSTLSASVGDRVIITCQASEIIHSWLAWYQQKPGKAPKLLIYLASTLASGVPSRFSGSGSGAEFTLTISSLQPDDFATYYCQNVYLASTNGANFGQGTKLTVLKRTVAAPSVFIFPPSDEQLKSGTASVVCLLNNFYPREAKVQWKVDNALQSGNSQESVTEQDSKDSTYSLSSTLTLSKADYEKHKVYACEVTHQGLSSPVTKSFNRGECGSGGGACGVYHREAQSGKYYLTYAEAKAVCEFEGGHLATYKQLLCAQKIGFHVCAAGWMAKGRVGYPIVKPGPNCGFGKTGIIDYGIRLNRSERWDAYCYNPHA
notes: Tag NVS-AX at the C-terminus of the NVS4 light chain
B3: NVS104 (Fab)
heavy: GACGVYHREAQSGKYYLTYAEAKAVCEFEGGHLATYKQLLCAQKIGFHVCAAGWMAKGRVGYPIVKPGPNCGFGKTGIIDYGIRLNRSERWDAYCYNPHAGGGSQVQLVESGGGLVQPGGSLRLSCTASGFSLTDYYYMTWVRQAPGKGLEWVGFIDPDDDPYYATWAKGRFTISRDNSKNTLYLQMNSLRAEDTAVYYCAGGDHNSGWGLDIWGQGTLVTVSSASTKGPSVFPLAPSSKSTSGGTAALGCLVKDYFPEPVTVSWNSGALTSGVHTFPAVLQSSGLYSLSSVVTVPSSSLGTQTYICNVNHKPSNTKVDKRVEPKSC
light: B1 light
notes: Tag NVS-AX at the N-terminus of NVS4 heavy and light chains
B4: NVS106 (Fab)
heavy: B3 heavy with Q105E, D135N, D159Q, D160N, D204N, D212N
light: B1 light with D104E, E130Q, I131K, L153Q, T156K, S159K
notes: Tag NVS-AX at the N-terminus of the LC2 light chain and the HC4 heavy chain
B5: NVS4/NVSX (Fab)
heavy: EVQLVESGGGLVQPGGSLRLSCTASGFSLTDYYYMTWVRQAPGKGLEWVGFIDPDDDPYYATWAKGRFTISRDNSKNTLYLQMNSLRAEDTAVYYCAGGDHNSGWGLDIWGQGTLVTVSSASTKGPSVFPLAPSSKSTSGGTAALGCLVKDYFPEPVTVSWNSGALTSGVHTFPAVLQSSGLYSLSSVVTVPSSSLGTQTYICNVNHKPSNTKVDKRVEPKSCGSGGGGVYHREAISGKYYLTYAEAKAVCEFEGGHLATYKQLLAAQKIGFHVCAAGWMAKGRVGYPIVKPGPNCGFGKTGIIDYGIRLNRSERWDAYCYNPHA
light: EIVMTQSPSTLSASVGDRVIITCQASEIIHSWLAWYQQKPGKAPKLLIYLASTLASGVPSRFSGSGSGAEFTLTISSLQPDDFATYYCQNVYLASTNGANFGQGTKLTVLKRTVAAPSVFIFPPSDEQLKSGTASVVCLLNNFYPREAKVQWKVDNALQSGNSQESVTEQDSKDSTYSLSSTLTLSKADYEKHKVYACEVTHQGLSSPVTKSFNRGEC
notes: NVS4 Fab linked to peptide tag NVS-X
B6: NVS100 (Fab)
heavy: B3 heavy
light: B5 light
notes: Tag NVS-AX at the N-terminus of the NVS4 heavy chain
B7: HC7T (Fab, V domains shown)
VH: EVQLVESGGGLVQPGGSLRLSCTASGFSLTKYYYMTWVRQAPGKGLEWVGFIKPKDKPYKATWAKGRFTISRDNSKNTLYLQMNSLRAEDTAVYYCAGGDHNSGWGLDIWGQGTLVTVSS
VL: EIVMTQSPSTLSASVGDRVIITCQASEIIHSWLAWYQQKPGKAPKLLIYLASTLASGVPSRFSGSGSGAEFTLTISSLQPDDFATYYCQNVYLASTNGANFGQGTKLTVLK
notes: Tagged heavy chain CDR variant HC7 with NVS4 light chain
B8: LC3T (Fab, V domains shown)
VH: B7 VH with K31D, K53D, K55D, K57D, K60Y
VL: B7 VL with E27Q, I28K, L50Q, T53K, S56K, T96R
notes: Light chain CDR variant LC3 with tagged NVS4 heavy chain
B9: LC5T (Fab, V domains shown)
VH: B7 VH with K31D, K53D, K55D, K57D, K60Y
VL: B7 VL with E27Q, H30K, L50Q, S56K
notes: Light chain CDR variant LC5 with tagged NVS4 heavy chain
B10: HC6T (Fab, V domains shown)
VH: B7 VH with K31N, K53D, K55Q, D56N, K57Q, K60Y, D100N, D108N
VL: B7 VL
notes: Tagged heavy chain CDR variant HC6 with NVS4 light chain
B11: LC7T (Fab, V domains shown)
VH: B7 VH with K31D, K53D, K55D, K57D, K60Y
VL: B7 VL with E27Q, I28K, H30K, S56K, T96R
notes: Light chain CDR variant LC7 with tagged NVS4 heavy chain
B12: LC4T (Fab, V domains shown)
VH: B7 VH with K31D, K53D, K55D, K57D, K60Y
VL: B7 VL with E27Q, I28K, L50Q, S56K
notes: Light chain CDR variant LC4 with tagged NVS4 heavy chain
B13: LC2T (Fab, V domains shown)
VH: B7 VH with K31D, K53D, K55D, K57D, K60Y
VL: B7 VL with E27Q, I28K, L50Q, T53K, S56K
notes: Light chain CDR variant LC2 with tagged NVS4 heavy chain
B14: NVS102 (Fab)
heavy: QVQLVESGGGLVQPGGSLRLSCTASGFSLTDYYYMTWVRQAPGKGLEWVGFIDPDDDPYYATWAKGRFTISRDNSKNTLYLQMNSLRAEDTAVYYCAGGDHNSGWGLDIWGQGTLVTVSSASTKGPSVFPLAPSSKSTSGGTAALGCLVKDYFPEPVTVSWNSGALTSGVHTFPAVLQSSGLYSLSSVVTVPSSSLGTQTYICNVNHKPSNTKVDKRVEPKSCGSGGGACGVYHREAQSGKYYLTYAEAKAVCEFEGGHLATYKQLLCAQKIGFHVCAAGWMAKGRVGYPIVKPGPNCGFGKTGIIDYGIRLNRSERWDAYCYNPHA
light: B5 light
notes: Tag NVS-AX at the C-terminus of the NVS4 heavy chain
B15: HC8T (Fab, V domains shown)
VH: B7 VH with K55D, D56K, Y59K, K60Y
VL: B7 VL
notes: Tagged heavy chain CDR variant HC8 with NVS4 light chain
B16: NVS4/NVSY (Fab)
heavy: B5 heavy with L265Q
light: B5 light
notes: NVS4 Fab linked to peptide tag NVS-Y
B17: LC6T (Fab, V domains shown)
VH: B7 VH with K31D, K53D, K55D, K57D, K60Y
VL: B7 VL with E27Q, L50Q, S56K, T96R
notes: Light chain CDR variant LC6 with tagged NVS4 heavy chain
B18: HC4T (Fab, V domains shown)
VH: B7 VH with K31N, K53D, K55Q, D56N, K57D, K60Y, D100N, D108N
VL: B7 VL
notes: Tagged heavy chain CDR variant HC4 with NVS4 light chain
B19: HC3T (Fab, V domains shown)
VH: B7 VH with K31N, K53D, K55Q, D56N, K57N, K60Y, D100N
VL: B7 VL
notes: Tagged heavy chain CDR variant HC3 with NVS4 light chain
B20: LC1T (Fab, V domains shown)
VH: B7 VH with K31D, K53D, K55D, K57D, K60Y
VL: B7 VL with E27Q, L50Q, S56K
notes: Light chain CDR variant LC1 of NVS4 with tagged NVS4 heavy chain

Key:
[1] = molecular target: T1, human VEGF; assay: Biacore SPR, hVEGF
[2] = molecular target: T1, human VEGF; assay: Biacore SPR, hVEGF; remark: listed apart in the source
Procedure: At first, individual CDR residues were substituted and the affinity for hVEGF was measured by Biacore as described below. […] HC8T, and HC9T and the affinity of the resulting peptide-tagged Fab for both HA and hVEGF was measured by Biacore as described below (Table 17).
Affinity of optimized HA-binding peptide tags for HA and human VEGF were measured by Biacore. […] In order to determine target kinetics, two different formats were utilized. […] The second format is an anti-fab capture method in which the fab protein samples are captured and the target proteins flowed over at various concentrations.
The sample compartment which includes the analytes, ligands, and regeneration buffer, is kept at 15° C. All other running conditions were carried out at either 25° C. or 37° C. in 1×HBSE+P buffer. […] Data was collected at 10 Hz and analyzed using the Biacore T200 Evaluation Software (GE Healthcare®). This program uses a global fitting analysis method for the determination of rate and affinity constants for each interaction.

Row | Binder | Kd [1] [pM] | koff [1] [s⁻¹] | kon [1] [M⁻¹ s⁻¹] | Kd [2] [pM] | koff [2] [s⁻¹] | kon [2] [M⁻¹ s⁻¹]
1 | B1 | 7.1 | 0.000219 | 3.09e+07 | – | – | –
2 | B2 | 2.34 | 0.000128 | 5.49e+07 | – | – | –
3 | B3 | 0.854 | 1.57e-05 | 1.84e+07 | – | – | –
4 | B4 | 10.4 | 0.000563 | 5.4e+07 | – | – | –
5 | B5 | 0.465 | 2.11e-05 | 4.53e+07 | – | – | –
6 | B6 | 1.34 | 4.97e-05 | 3.71e+07 | – | – | –
7 | B7 | – | – | – | 554 | 0.186 | 3.37e+08
8 | B8 | – | – | – | 1.2 | 0.00016 | 1.34e+08
9 | B9 | – | – | – | 4.35 | 0.000588 | 1.35e+08
10 | B10 | – | – | – | 49.9 | 0.00624 | 1.25e+08
11 | B11 | – | – | – | 3.79 | 0.000229 | 6.06e+07
12 | B12 | – | – | – | 1.49 | 0.000135 | 9.1e+07
13 | B13 | – | – | – | 1.33 | 0.000109 | 8.18e+07
14 | B14 | 1.43 | 0.000134 | 9.35e+07 | – | – | –
15 | B15 | – | – | – | 948 | 0.0026 | 2.74e+06
16 | B16 | 0.447 | 2.26e-05 | 5.06e+07 | – | – | –
17 | B17 | – | – | – | 1.09 | 9.66e-05 | 8.88e+07
18 | B18 | – | – | – | 9.93 | 0.000912 | 9.18e+07
19 | B19 | – | – | – | 80 | 0.00898 | 1.12e+08
20 | B20 | – | – | – | 1.23 | 7.3e-05 | 5.95e+07
